From a protein production outcome set (Wang et al. 2014)

Assay: label from the status in PepcDB records
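Also: failed if final PepcDB status was selected cloned or expressed and not failed if soluble or beyond.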

Question: For “MATDAPPPSKEEPPSQEEHRLPSAEEFSEVQQSAEFAELRRSFRSFAFPLTVAFVAWYLLYVLLSNYAGGFMGTKLFGNINVAFVFGIAQFVTTFLIAWWYSRHAAAKLDPKAEAIKTRMEGGA”, which protein production is on record?
Answer: failed

Question: Which protein production does the source give for “MATDTTVQLRAGWQGRFYEDFAVGDVYKHPYGRTVTETDNVWFTNLTMNANPMHFNAAYASGTEFDERLVNGLFVIALSVGMSVVDVSANATANLGYDDIQHHAPVFHGDTLFAESEVLSKRESESRPHVGMVTTELRTYTQDGELVLSLERTPMVRKRGLEHHHHHH” here?
Answer: not failed

Question: Which protein production does the source give for “MATESSESEEEGKISGGNYKLIIDDDLREMGKNAAWSVSSYGLQPHLINIQFQKKVKLQLVVLYVDFKLDESYTPSKISIRAGDGFHNLKEIKSVELVKPTGWVCLSLSGTDPRETFCQESR” here?
Answer: failed

Question: For “MATISAKLVKELREKTGAGMMDCKKALTETDGDIDKAIDYLREKGIAKAAKKADRIAAEGLVHVETKGNDAVIVEINSETDFVARNEGFQELVKEIANQVLDTKAETVEALMETTLPNGKSVDERIKEAISTIGEKLSVRRFAIRTKTDNDAFGAYLHMGGRIGVLTVVEGSTDEEAARDVAMHIAAINPKYVSSEQVSEEEINHEREVLKQQALNEGKPENIVEKMVEGRLRKYLQEICAVDQDFVKNPDVTVEAFLKTKGGKLVDFVRYEVGEGMEKREENFADEVKGQMK”, which protein production is on record?
Answer: failed

Question: For “MATLKVSDSVPAPSDDAEQLRTAFEGWGTNEDLIISILAHRSAEQRKVIRQAYHETYGEDLLKTLDKELSNDFERAILLWTLEPGERDALLANEATKRWTSSNQVLMEVACTRTSTQLLHARQAYHARYKKSLEEDVAHHTTGDFRKLLVSLVTSYRYEGDEVNMTLAKQEAKLVHEKIKDKHYNDEDVIRILSTRSKAQINATFNRYQDDHGEEILKSLEEGDDDDKFLALLRSTIQCLTRPELYFVDVLRSAINKTGTDEGALTRIVTTRAEIDLKVIGEEYQRRNSIPLEKAITKDTRGDYEKMLVALLGEDDA”, which protein production is on record?
Answer: not failed

Question: With “MATNLKSTAKLVKPIQYDEVIEVERIFADPAFIEQHRQRILASFKDAKESALYHELTHIVIKDNLFSCAMNAIVGYFEFNIDEAELKNVMEGLKRDVIQGAEDNTVQAIAEKIIKKALVFNHLQKEWKVEITDEVVKNVISLYYEKTNQSVREYLDDKQKFEGVRTALLEERMVLETINHFKFHFNLTGQLPN” as the sequence, how does the protein production read?
Answer: not failed

Question: For “MATPFWYNAALKVLKPVYRWRIKKRAENEMRYQQECRERFGPFQQPQNRHALWFHAVSVGETNAAQPLIEYYLKLGHPVLVTNTTKTGQARAKSLFLKSPYLELFQAVYLPVDQIFLLKQFFELYQPKLLALVETELWPNLIDQAQHYGVPTFLINARLSEKSAQGYARVSALSNAMLSRLTGLLAQDQSTQQRFIGLGLAREKAQVVGNIKFDIDVPLLFVEQARRLQQQWQLAGRKIMVLASTHAPEEQQLLTALKTHLMADPDLLCIVVPRHPERFDEVFQICQNLQLDTARRSLEQPIQPETQVYLADSMGELWLWYALAQTAFVGGSLNEPGGGHNILEPMALKIPVVIGPRYFNFQTIVDEFRETEAIDIVQDATQAVRQLLHYVSTPNSADQIVDHAQSILQRNKGSLARHIHVLDQYLS”, which protein production is on record?
Answer: failed

Question: For “MATPQDKLHTVRLFGTVAADGLTMLDGAPGVRFRLEDKDNTSKTVWVLYKGAVPDTFKPGVEVIIEGGLAPGEDTFKARTLMTKCPLEHHHHHH”, which protein production is on record?
Answer: not failed

Question: Which protein production does the source give for “MATRMTTIRRQTKMAIGQRIKYFRNRIGMTQKQLGEQLGFKGKTSDVRMAQYESEARVPKIDLVKQMSQIFDINTHALTVPDIDTHIGLMHTLFALEDMYGLKVKNVDGQPHLWLDSSISAPSSSVDEMFRAWMEQADKLENGEISKEEYDEWRYKYPELDTYQKRAKVPSQELSDYLVKELTKKEK” here?
Answer: failed

Question: For “MATRRLTDAFLLLRNNSIQNRQLLAEQVSSHITSSPLHSRSIAALADDRMALVSGISLDPEAAIGVTKRPPPKWVDGVDEIQYDVGRIKQKMKELASLHDKHLNRPTLDDSSEEEHAIEITTQEITQLFHRCQRAVQALPSRARACSEQEGRLLGNVVASLAQALQELSTSFRHAQSGYLKRMKNREERSQHFFDTSVPLMDDGDDNTLYHRGFTEDQLVLVEQNTLMVEEREREIRQIVQSISDLNEIFRDLGAMIVEQGTVLDRIDYNVEQSCIKTEDGLKQLHKAEQYQKKNRKMLVILILFVIIIVLIVVLVGVKSR”, which protein production is on record?
Answer: failed

Question: With “MATRTQARGAVVELLYAFESGNEEIKKIASSMLEEKKIKNNQLAFALSLFNGVLEKINEIDALIEPHLKDWDFKRLGSMEKAILRLGAYEIGFTPTQNPIIINECIELGKLYAEPNTPKFLNAILDSLSKKLTQKPLN” as the sequence, how does the protein production read?
Answer: failed

Question: For “MATVTKAPKKQIQFADDMQEFTKFPTKTGRRSLSRSISQSSTDSYSSAASYTDSSDDEVSPREKQQTNSKGSSNFCVKNIKQAEFGRREIEIAEQDMSALISLRKRAQGEKPLAGAKIVGCTHITAQTAVLIETLCALGAQCRWSACNIYSTQNEVAAALAEAGVAVFAWKGESEDDFWWCIDRCVNMDGWQANMILDDGGDLTHWVYKKYPNVFKKIRGIVEESVTGVHRLYQLSKAGKLCVPAMNVNDSVTKQKFDNLYCCRESILDGLKRTTDVMFGGKQVVVCGYGEVGKGCCAALKALGAIVYITEIDPICALQACMDGFRVVKLNEVIRQVDVVITCTGNKNVVTREHLDRMKNSCIVCNMGHSNTEIDVTSLRTPELTWERVRSQVDHVIWPDGKRVVLLAEGRLLNLSCSTVPTFVLSITATTQALALIELYNAPEGRYKQDVYLLPKKMDEYVASLHLPSFDAHLTELTDDQAKYLGLNKNGPFKPNYYRY”, which protein production is on record?
Answer: failed

Question: Which protein production does the source give for “MAVAAAKYTTGFWINTIVIILIIAYLVYQLYLYWKRGKISTQLDDDEFRAGMRKAQVIDVREKKEFDAGHILGARNIPYSQMKNRTQELRSDLPVYLYDQGRTFSGRAAMLLSKKGFTQLYILKNGYQRWTGKTKKTKY” here?
Answer: failed

Question: With “MAVALLGNRDGQAFLATLFDLARRGHVTLRHDREDQAFGTTDVVRLETHPAPNDLSDFERRLVDTLGEYETLDDFWSDTRSFRSDVMSDVRGVLFERGWMENHTVRSGLLLGGALVALLGGFAAVVTGDSALRFYLLFGGMGVSLGGFIAAVRQYTWTEDGARRAMALRAYLDHEKSEIERLRETSPARAAERLVDALPWLLLHDEVSRAWIEETKEALDAADEVPELPDGFVSLVETEGSARAPVAAFLPVVTVMGAVESSSAGAVGAAGASGAAGAAGGGAGAAGAA” as the sequence, how does the protein production read?
Answer: failed

Question: With “MAVDMFIKIGDVKGESKDKTHAEEIDVLAWSWGMSQSGSMHMGGGGGAGKVNVQDLSFTKYIDKSTPNLMMACSSGKHYPQAKLTIRKAGGENQVEYLIITLKEVLVSSVSTGGSGGEDRLTENVTLNFAQVQVDYQPQKADGAKDGGPVKYGWNIRQNVQA” as the sequence, how does the protein production read?
Answer: not failed

Question: Which protein production does the source give for “MAVEEVIEMQGLSLDPTSHRVMAGEEPLEMGPTEFKLLHFFMTHPERVYSREQLLNHVWGTNVYVEDRTVDVHIRRLRKALEPGGHDRMVQTVRGTGYRFSTRF” here?
Answer: not failed

Question: Which protein production does the source give for “MAVKHASAPKAYINITGLGFAKLTKEGAELKYSDITKTRGLQKIGVETGGELKTAYADGGPIESGNTDGEGKISLQMHAFPKEIRKIVFNEDYDEDGVYEEKQGKQNNYVAVWFRQERRDGTFRTVLLPKVMFTNPKIDGETAEKDWDFSSEEVEGEALFPLVDNKKSVRKYIFDSANMTNHGGDGEKGEEAFLKKILGEEYTGNVTEDNEETLLEHHHHHH” here?
Answer: not failed

Question: With “MAVLGQLGFMIAFLSGGVAAGHFGLLTERRTDILTTLVFTVALPALIFRSTYDRPLQEIISPALLGGFWVIIALTITLGWLVHRRLESADRRSVSVVQSYHSNMGFLGLPLVAATMGSEATAVASVILGIGAVTHVPVTVFLLVRINGSDASLLSECRKLVTNPVLIALAAGITASVLSLSVPESLISALGPPAELALPVALLCIGATLDTDLPVSDLQKTVSVVGLKVLWMPALAWLVYSSLSMDTTALGAAVVMLGTPTAVSTYVYTTELGGDAAFASLNVFTSTVVSIGTLSLLVWLFT” as the sequence, how does the protein production read?
Answer: failed

Question: For “MAVNVYSTSVTSENLSRHDMLAWVNDSLHLNYTKIEQLCSGAAYCQFMDMLFPGCVHLRKVKFQAKLEHEYIHNFKVLQAAFKKMGVDKIIPVEKLVKGKFQDNFEFIQWFKKFFDANYDGKDYNPLLARQGQDVAPPPNPGDQIF”, which protein production is on record?
Answer: not failed

Question: With “MAVPPVEMYSGSFWNRMRKPLPLRTQVIRFTVVFVIVSFILAVALQITHERMPDPKVTKPLPDLGFELLTKVPGMYVLADCCIGFLNILSVFTAFKLYLLHRHCVGSGEPELPCNIPGVSRFFLSVWLCKENCRIELRNIHTIAWIRFITSYALLLLFRSAVIVMTSLPAPDDLCQDPPKIENPVKNVILTVLTAGGGSIHCGDLMYSGHTVILTLHLMFHWIYGAMVHWSFRPVVTVVAIFGYYCIVASRFHYTDDVLVAIYLTIATFIAVGHNADGAPWQLQLFIRWWPCCGANSREVTEDSQPVMVAFKSEELDEMNGVLEGRQKKHGGVGDGESLMFKCGAYVVSHHHHHH” as the sequence, how does the protein production read?
Answer: not failed

Question: Which protein production does the source give for “MAVPTELDGGSVKETAAEEESRVLAPGAAPFGNFPHYSRFHPPEQRLRLLPPELLRQLFPESPENGPILGLDVGCNSGDLSVALYKHFLSLPDGETCSDASREFRLLCCDIDPVLVKRAEKECPFPDALTFITLDFMNQRTRKVLLSSFLSQFGRSVFDIGFCMSITMWIHLNHGDHGLWEFLAHLSSLCHYLLVEPQPWKCYRAAARRLRKLGLHDFDHFHSLAIRGDMPNQIVQILTQDHGMELICCFGNTSWDRSLLLFRAKQTIETHPIPESLIEKGKEKNRLSFQKQ” here?
Answer: failed

Question: With “MAVRFASLGSGSDGNALLVESTDGTTSTRILLDCGFGIRETVRRLERLGCAPASLDAILVTHEHGDHIGSAYAFAAKYSVPVWTSHGTYRATASLRGADRAAVRFCRADDAFSIGDLRILPYTVPHDAREPLQFIFDDGARRLGVLTDAGMSTEYLCGHLTGLHAFVLECNHDREMLANSAYPWSLKQRIGGDFGHLANDIAAAILARVRHDGLHTVVAAHLSKQNNTPELAAAAIASALGVPAGDVPIADQEAGLGWQAV” as the sequence, how does the protein production read?
Answer: failed

Question: With “MAVSLPNSFLQISPCVPSLQLRKPVMAAVKGGKQSVRRSSNTVVQITCRKKELHPEFHEDAKVYCNGELVMTTGGTKKEYVVDVWSGNHPFYLGNRSALMVDADQVEKFRKRFAGLSEIMEIPVLKGEIIMPTKKSKGPKGKKK” as the sequence, how does the protein production read?
Answer: failed

Question: For “MAVSNDITFADYFYQWYEVNKLPHVSESTKRHYESAYKHIKDHFRHKLLKDIKRTEYQKFLNEYGLTHSYETIRKLNSYIRNAFDDAIHEGYVIKNPTYKAELHASVPAKTELEHHHHHH”, which protein production is on record?
Answer: not failed

Question: With “MAVTLRLTNSLAFSSHPLTSSVLFRGSKSIGTITKIASTIRTVKMAAFAGSDSETTSSTSRVIDSHLHIWASPQEAETYPYFPGQEPTLTGDVNFLLKNMEEARVDGALIVQPINHKFDHSLVTRSRPF” as the sequence, how does the protein production read?
Answer: failed

Question: With “MAVYTDITEDELRNFLTQYDVGSLTSYKGIAEGVENSNFLLHTTKDPLILTLYEKRVEKNDLPFFLGLMQHLAAKGLSCPLPLPRKDGELLGELSGRPAALISFLEGMWLRKPEAKHCREVGKALAAMHLASEGFEIKRPNALSVDGWKVLWDKSEERADEVEKGLREEIRPEIDYLAAHWPKDLPAGVIHADLFQDNVFFLGDELSGLIDFYFACNDLLAYDVSICLNAWCFEKDGAYNVTKGKALLEGYQSVRPLSEAELEALPLLSRGSALRFFLTRLYDWLTTPAGALVVKKDPLEYLRKLRFHRTIANVAEYGLAGE” as the sequence, how does the protein production read?
Answer: not failed

Question: With “MAYDDMGFPVSVSGPARRVVSLVPSLTEAIAHTRREALVGATDWCTHPAGLDVARVRGTKNPDRAAIAALRPDLVIANKEENRELDVRMLRAAGIPVWVTVIQTVPQALDSLTRLFTEALCWPLPDWLVEARRLWSHPLPPVRARVAIPVWRDPWMVVGSATFTGDLARRLGLANVFADHPERYPKVALADIDRDDVDLVVLPDEPYAFTPQDGPEAFRCAPTVLVSGRLLTWYGPSLLHAKEGLAALVQ” as the sequence, how does the protein production read?
Answer: failed
